From PMC3834821
pKd: −log10 of the molar value.

Target: T1, GST-DAZAP1 (UniProt Q9JII5)
T1 sequence: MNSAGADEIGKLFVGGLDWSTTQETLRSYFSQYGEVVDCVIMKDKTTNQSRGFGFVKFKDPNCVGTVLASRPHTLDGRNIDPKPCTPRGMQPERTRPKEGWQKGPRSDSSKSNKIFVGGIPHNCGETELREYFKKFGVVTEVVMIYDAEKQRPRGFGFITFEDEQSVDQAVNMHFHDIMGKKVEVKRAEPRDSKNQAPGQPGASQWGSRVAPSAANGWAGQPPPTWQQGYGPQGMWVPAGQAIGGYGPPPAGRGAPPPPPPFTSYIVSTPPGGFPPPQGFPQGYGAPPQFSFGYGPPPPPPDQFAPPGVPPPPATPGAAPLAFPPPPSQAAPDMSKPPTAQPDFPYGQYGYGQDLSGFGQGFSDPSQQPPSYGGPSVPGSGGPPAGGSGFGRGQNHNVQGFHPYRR
Test: EMSA
Settings: 20 mM HEPES pH 7.6, 3 mM MgCl2, 40 mM KCl, 2 mM DTT, 5% glycerol, 5 mg/ml heparin; room temperature, 15 min; native 5% PAGE in 0.25x TBE; RNA 0.5-3.0 nM for Kd

ACCUCCUAAUUUGUUCUUCAUUUCUU [Crem-dA]
pKd: 6.77

AAGGUGAUAUUUAGUAUAUAGUGACAAUUUAUG [Pot1a-dA]
pKd: 8.15

ACCUCCUAAUGGUAAGUACCCUACUUGUUCUUCAUUUCUU [Crem-Wt]
pKd: 7.72

AUCAUAGAGGUAGCAUUUUAGUUUAUUCUGUGAACUUCAAAAUUGACU [Crisp2-WtC]
pKd: 7.82

AUCAUAGAAUUUUAGUUUAUUCUGUGAACUUCAAAAUUGACU [Crisp2-dC]
pKd: 7.15

AAGUGUGAUAUAAUUCACUAUAGAGGU [Crisp2-dB]
pKd: 7.09

AAGUGUGAUAUAAUUCACUGGUAGUUUAUCAUAGAGGU [Crisp2-WtB]
pKd: 7.47

AAGGUGAUAUUUAGUAUAUAGUGACACGUAAACAUUUAUG [Pot1a-Wt]
pKd: 8.11

AAGGUGAUAUUUAUGACACGUAAACAUUUAUG [Pot1a-dE]
pKd: 6.52
